From patent US20200024330A1

Tests used:
Assay in all cases: cell-based or functional assay
[1] = target: HIV-1 Env of isolate MGRM-C-008 (HIV-1)
[2] = target: HIV-1 Env of isolate MGRM-A-010 (clade A), on pseudovirus (HIV-1)
[3] = target: HIV-1 Env of isolate 92BR020 (pseudovirus) (HIV-1 isolate 92BR020, subtype B)
[4] = target: HIV-1 Env of isolate MGRM-G-025 (HIV-1)
[5] = target: HIV-1 Env of isolate MGRM-D-012 (HIV-1)
[6] = target: HIV-1 Env of isolate SF162 (HIV-1) (UniProt P19550)
[7] = target: HIV-1 Env of isolate MGRM-C-024 (HIV-1)
[8] = target: HIV-1 Env of isolate NL43 (HIV-1)
[9] = target: HIV-1 Env of isolate MGRM-Chronic-B-004 (HIV-1)
[10] = target: HIV-1 Env of isolate TRO.11 (HIV-1)
[11] = target: HIV-1 Env of isolate MGRM-F1-020 (subtype F), on pseudovirus (HIV-1)
[12] = target: HIV-1 Env of isolate MGRM-D-004 (HIV-1)
[13] = target: HIV-1 Env of isolate 92WR021 (HIV-1)
[14] = target: HIV-1 Env of isolate MGRM-C-027 (HIV-1)
[15] = target: HIV-1 Env of isolate MGRM-Chronic-B-003 (HIV-1)
[16] = target: HIV-1 JR-CSF Env L125A (HIV-1 (isolate JR-CSF)) (UniProt P20871)
[17] = target: HIV-1 JR-CSF Env E466A (HIV-1 (isolate JR-CSF)) (UniProt P20871)
[18] = target: HIV-1 JR-CSF Env F468A (HIV-1 (isolate JR-CSF)) (UniProt P20871)
[19] = target: HIV-1 Env of isolate MGRM-G-006 (subtype G) (HIV-1)
[20] = target: HIV-1 Env of isolate MGRM-F1-018 (HIV-1)
[21] = target: HIV-1 Env of isolate MG RM-D-008 (subtype D) (HIV-1)
[22] = target: HIV-1 MGRM-Chronic-B-020 Env (pseudovirus) (HIV-1)
[23] = target: HIV-1 Env of isolate MGRM-F1-006 (subtype F) (HIV-1)
[24] = target: HIV-1 Env of isolate MGRM-C-008 (pseudovirus) (HIV-1 isolate MGRM-C-008, subtype C)
[25] = target: HIV-1 MGRM-Chronic-B-001 Env (pseudovirus) (HIV-1)
[26] = target: HIV-1 MGRM-Chronic-B-023 Env (pseudovirus) (HIV-1)
[27] = target: HIV-1 MGRM-Chronic-B-002 Env (pseudovirus) (HIV-1)
[28] = target: HIV-1 Env of isolate MGRM-C-014 (pseudovirus) (HIV-1 isolate MGRM-C-014, subtype C)
[29] = target: HIV-1 MGRM-Chronic-B-024 Env (pseudovirus) (HIV-1)

5329_C19 (PGT-136) (antibody), sequence (VH): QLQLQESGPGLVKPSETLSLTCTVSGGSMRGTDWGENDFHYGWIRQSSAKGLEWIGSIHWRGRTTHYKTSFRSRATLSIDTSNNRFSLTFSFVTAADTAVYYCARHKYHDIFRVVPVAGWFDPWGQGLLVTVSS
5329_C19 (PGT-136) (antibody), sequence (VL): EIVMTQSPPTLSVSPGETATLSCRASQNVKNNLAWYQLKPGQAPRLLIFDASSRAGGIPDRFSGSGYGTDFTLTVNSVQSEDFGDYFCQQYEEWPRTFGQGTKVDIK
PGT-142 (4995_E20) (antibody), sequence (VH): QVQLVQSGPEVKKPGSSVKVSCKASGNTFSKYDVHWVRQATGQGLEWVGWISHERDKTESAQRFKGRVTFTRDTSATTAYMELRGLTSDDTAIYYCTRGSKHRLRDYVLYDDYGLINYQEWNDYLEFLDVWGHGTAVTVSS
PGT-142 (4995_E20) (antibody), sequence (VL): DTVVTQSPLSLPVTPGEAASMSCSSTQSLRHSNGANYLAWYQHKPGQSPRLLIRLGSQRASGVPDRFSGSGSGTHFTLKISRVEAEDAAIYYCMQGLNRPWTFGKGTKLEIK
PGT-143 (4980_N08) (antibody), sequence (VH): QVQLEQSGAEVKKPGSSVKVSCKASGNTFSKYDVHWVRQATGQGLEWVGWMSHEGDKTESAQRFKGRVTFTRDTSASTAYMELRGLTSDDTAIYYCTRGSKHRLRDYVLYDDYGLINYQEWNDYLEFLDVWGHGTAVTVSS
PGT-143 (4980_N08) (antibody), sequence (VL): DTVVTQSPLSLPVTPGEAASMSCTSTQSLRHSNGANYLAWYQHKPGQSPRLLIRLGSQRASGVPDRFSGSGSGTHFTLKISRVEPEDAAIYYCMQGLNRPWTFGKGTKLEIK

Substance: 5329_C19 (PGT-136) (antibody)
- IC50 [1]: > 50 mg/L
- IC50, single-round pseudovirus neutralization [2]: > 50 mg/L
- IC50 (µg/mL) neutralization [3]: 8.61 µg/mL
- IC50, pseudovirus neutralization [4]: > 50 mg/L
- IC50 [5]: > 50 mg/L
- IC50 [6]: 0.482 mg/L
- IC50 [7]: > 50 mg/L
- IC50 [8]: 27.7 mg/L
- IC50 [9]: > 50 mg/L
- IC50 [10]: 0.073 mg/L
- IC50, pseudovirus neutralization [11]: 9.31 mg/L
- IC50 [12]: > 50 mg/L
- neutralization IC50 [13]: > 50 mg/L
- IC50 [14]: > 50 mg/L
- IC50 [15]: > 50 mg/L

Substance: 5136_H01 (PGT-131) (antibody)
- IC50 [1]: > 50 mg/L
- Fold IC50 increase relative to wild-type [16]: 2.5 fold
- IC50, single-round pseudovirus neutralization [2]: 0.01 mg/L
- IC50 (µg/mL) neutralization [3]: 6.16 µg/mL
- Fold IC50 increase relative to wild-type [17]: 1.7 fold
- IC50, pseudovirus neutralization [4]: 7.75 mg/L
- IC50 [5]: > 50 mg/L
- IC50 [6]: 0.025 mg/L
- Fold IC50 increase relative to wild-type [18]: 1.6 fold
- IC50 [7]: > 50 mg/L
- IC50 [8]: > 50 mg/L
- IC50 [9]: 0.04 mg/L
- IC50 [10]: 1.91 mg/L
- IC50, pseudovirus neutralization [11]: > 50 mg/L
- IC50 [12]: 2.01 mg/L
- neutralization IC50 [13]: 0.012 mg/L
- IC50 [14]: 0.065 mg/L
- IC50 [15]: > 50 mg/L

Substance: VRC01 (antibody)
- neutralization IC50 [19]: 0.055 mg/L
- IC50, pseudovirus neutralization [5]: 0.216 mg/L
- neutralization IC50 [6]: 0.421 mg/L
- neutralization IC50 [8]: 0.1 mg/L
- IC50 [9]: 0.055 mg/L
- neutralization IC50 [10]: 0.186 mg/L
- IC50, pseudovirus neutralization [20]: 0.032 mg/L
- IC50 [15]: 0.1 mg/L

Substance: PGT-122 (antibody)
- IC50 (µg/mL), pseudovirus neutralization [13]: 0.021 µg/mL

Substance: 5145_B14 (PGT-127) (antibody)
- Fold IC50 increase relative to wild-type [16]: 1.4 fold
- IC50 (µg/mL), pseudovirus neutralization [21]: > 50 µg/mL
- IC50, pseudovirus neutralization [22]: 0.05 mg/L
- Fold IC50 increase relative to wild-type [17]: 0.9 fold
- IC50, pseudovirus neutralization [4]: 19.3 mg/L
- IC50 (µg/mL), pseudovirus neutralization [23]: 7.17 µg/mL
- IC50 (µg/mL) neutralization [24]: > 50 µg/mL
- IC50, pseudovirus neutralization [25]: > 50 mg/L
- IC50, pseudovirus neutralization [26]: > 50 mg/L
- Fold IC50 increase relative to wild-type [18]: 3 fold
- IC50, pseudovirus neutralization [27]: 0.279 mg/L
- IC50 (µg/mL) neutralization [28]: > 50 µg/mL
- IC50 [20]: 3.59 mg/L
- IC50, pseudovirus neutralization [29]: > 50 mg/L

Substance: 4838_L06 (PGT-121) (antibody)
- IC50 (µg/mL), pseudovirus neutralization [21]: > 50 µg/mL
- IC50, pseudovirus neutralization [22]: 0.004 mg/L
- IC50 (µg/mL), pseudovirus neutralization [23]: 5.33 µg/mL
- IC50 (µg/mL) neutralization [24]: 0.012 µg/mL
- IC50, pseudovirus neutralization [25]: 0.102 mg/L
- IC50, pseudovirus neutralization [26]: 0.005 mg/L
- IC50, pseudovirus neutralization [27]: 0.386 mg/L
- IC50 (µg/mL) neutralization [28]: 26.9 µg/mL
- IC50 [20]: 0.04 mg/L
- IC50, pseudovirus neutralization [29]: 0.195 mg/L

Substance: PGT-143 (4980_N08) (antibody)
- neutralization IC50 [19]: 0.031 mg/L

Substance: PGT-142 (4995_E20) (antibody)
- neutralization IC50 [19]: 0.019 mg/L

Substance: PGT-121 (antibody)
- IC50 (µg/mL), pseudovirus neutralization [13]: 0.009 µg/mL
